Experimental data reported in the DeepSol protein solubility set.

test: soluble on expression in E. coli; label from the status in PepcDB or PDB records

Row | Sequence | soluble on expression in E. coli
1 | SPLKFELCPGRMIGGNNPCFIIAEIGQNHQGDIEIAKKMIKMAKDCGADCAKFQKSELEYKFNKKALERPYTSKHSWGKTYGEHKRHLEFSHEQYRELQQYAKQVGIFFTASGMDEMAVEFLHELDVPFFKVGSGDTNNFPYLKKTAQKGRPMVVSSGMQSMETMQHVYKIVKEHNQNFCILQCTSAYPLEPEDVNLRVITEYQKEFPDIPIGYSGHESGINITVGAVALGAKVVERHVTLDKSWKGSDHAASLEPEELAELVRSIRIVERALGTGLKRMLPCEVPCHDKLGKSVVAKTSIPKGTELTLDMLAVKVAEPKGVAPEEIFQLVGKKVTTDVEEDESITEDVVDSYGKKAKA | soluble
2 | MARRISEPAREIDIIHETDVLVVGSGPGGLPAALAAARAGAEVTLVERFGCFGGNLTVVGVEGMHWYRHEQTIESNGIAREFEEKAKEMGAAVPESQSLSHEIDSEGFKLVADRMVLDEPNIRPMLHRFFVAPLMEGDTIIGIVTESKSGREAILARRVIDATGDADVVTRAGAPVYKTPAEQMMAASVMFHLAGVDKQRFMDGIKADPQTYRDWGGGGEWNIETSGKEDDMFSPFLKKPFQQAIRDGLIPPHLNTIAGTWGAVHDTGELTYMNLIHLDGCDGTDPDSLTTYEIEGRRQTMLAIEALRRYTPGCENIRLRNFGMSIGIRDTRKVDCLYNMTETDVREQGRFEDSIGIFPEFIDGYGILILPTTGRYFQMPYRNLLPRGVKNLLVAGRITGGDRISHAATRNMACCAVTGQGAGIAAALSVKSNRPLDEIDPLLIQKELERQGGRHHLEHHHHHH | not soluble
3 | MSNYPLHQACMENEFFKVQELLHSKPSLLLQKDQDGRIPLHWSVSFQAHEITSFLLSKMENVNLDDYPDDSGWTPFHIACSVGNLEVVKSLYDRPLKPDLNKITNQGVTCLHLAVGKKWFEVSQFLIENGASVRIKDKFNQIPLHRAASVGSLKLIELLCGLGKSAVNWQDKQGWTPLFHALAEGHGDAAVLLVEKYGAEYDLVDNKGAKAEDVALNEQVKKFFLNNVVDKLAAALEHHHHHH | soluble
4 | MLDTLLINIGQLLTMDQEDGLLRREAMNTLPVIENGVVGIENGVITFVGTAEEAKGLQAKEVIDSGGKMVSPGLVDPHTHLVFGGSRENEIALKLQGVPYLEILEQGGGILSTVNATKQASKEELVQKAKFHLDRMLSFGVTTVEAKSGYGLDDETEWKQLEATAQLQKEHPIDLVSTFLGAHAVPKEYKGRSKEFLQWMLDLLPEMKEKQLVEFVDIFCETGVFSVEESKEFLLKAKELGFDVKIHADEIDPLGGAEAAAEIGAASADHLVGASDKGIEMLANSNTVATLLPGTTFYLNKESFARGRKMIDEGVAVALATDFNPGSCPTENIQLIMSIAMLKLKMTPEEVWNAVTVNSSYAINRGDVAGKIRVGRKADLVLWDAYNYAYVPYHYGVSHVNTVWKNGNIAYTRGEQSWSTATI | not soluble
5 | MEHEQHSSINDILHHYKEGIGSFTNQIPEIAETYNAFTQACFQEGALTKREKQLIALGISLATQDEYCTIYHTKGCLDQGCSDKEILEACGVSAAFAGGAAMSQAVTLVQECLTELKNQKH | not soluble
6 | MANQLSTQQVKRDITTDPTLLTGADIKKYFDPQNLLSEKQVGQALALCKGRNLNPFANEVYIVAYKNNSGTDFSLIVSKEAFMKRAERCEGYDGFEAGITVMRNGEMVEIEGSLKLPDDVLIGGWAIVYRKDRSHRYKVTVDFNEYVKLDKYGNPRSTWKSMPGTMIRKTALVQTLREAFPDELGNMYTDIDGGDTFDAIKDVTPQETQEEVRARKMAQIEQYKQEQTQKQTQKADTSYPVDEVSEHTDDPVQGELLDGELEY | not soluble
7 | SLPIDAVLPALRQALTTRHEAVLEAPPGAGKTTRVPLALLEETWLAGQTILMLEPRRLAARAAAERLASELGEKVGETVGYRIRLESCVGPKTRIEVVTEGILTRCLQDDPALEGVGLLIFDEFHVLPFA | not soluble
8 | MRLPPMLDNLTRMARMNDNQHRFALSDLYRFVNGPWLDSHVIPEDRGVDGIFHGLRDRAEEDVHTIVMDSADSLAGKLYASFMDTEGIESAGVAALDKDLTLIDVATVPEFVQALGALDRVGVGGPVGFWVAKDSAGDKSVAYIMQSGITLPDEAYYREESHAQTREAYQKHVEKMLGFLAPEQLGTTPIDAATRILALETDIAAAHWDVVQRRDAVKTFNPTEMAELPPQVAALLRAAGLPEHRVISMMPSYFEALESLLTPQRLDDWKLLTTWRILHSRAGVLTPEISRADFEFFGTTLSGATQQRDRWKRALGLAESFVGEEIGALYVERHFPESSKKDMLSLVSYLIEAYRERISGLSWMTPETRERALDKLDKFNAKIGYPDSWRSYAGLEFSAKGTDLL | not soluble
9 | MAHHHHHHMSAGDTPVSLFLQACNQEGVKTPNPKLVEFFQSHETFDSILEIDLSNNYIGNRGLLAVLGVIEHLSCFRCLNAMDQKLYNSDFSEEAVKGNAVIDRIVEVFKVHPTANSLNLSNNPISNYAGRKLLSLAQVNRRMCLIEVSDTRIDFDLRNKIAKQCEENTRNMWDAEQDENANSCAVFGENLEWVPTQATADLTSLGAGRARRQTVRVEGIDPEAAKNYVPPVHEKSQEDTDMICKLLSHNVLFGFLGSKDILTVAGAMYREEFVKDERIIEFGQTHCDKLYVIQSGEADVIKEGQKVFVKTEGTAVGELELLYDTPAVATVKVSTEVLVAWVLDRETYRNLVMGSCIRRRETYMSMLAKVPFLQSLDAYERMQIADALTSDEFAAGDYIIHYDEEGEWLYIIIEGTVEVIGRDAAGNKTKVCEFHSGDHIGELEFLNKHRTVADIVAVTGVTTAKLNRRHFEMCMGPVMDVLKRNSTSAKYDYYQQVLQQQQQGAPAAVQ | soluble
10 | ATGWNNALGHTAANEEPQEEASSQTTSIHFPLDYKQWQEEQDINLLNRALEEAKFNQRQAAELLGLSYHQLRGMVRKYGLVGQS | soluble
11 | MSNIIVLSGSPRKGGNTDLLVDAFVKGAEKSNNVEVVSVAYYKVNPCIGCNSCFDRAGHECFQQDDMQIVYDKLKCADVIVVASPVYFYGVSAQLKAIIDRLHTPMRNDFKVKKLALILVGAAVLPELFDSIKIQYQLVLNFFKLEDAGMVLVRGAKDKGDVRNTDGLDEAYRLGLAME | not soluble
12 | MGSDKIHHHHHHMKRARAATNLPETRQPRSAHFAQAGQRWSDDVDASTTGVSKHDMCFAVASRESVRPYVLPRNKNDMADAEAICEAVTRPNMRFVAVKTAAQQSVLMLHRCRALLVRQRTMLANAIRAHLAEFGIVMPQGIRTLLTALIAPKDEVNDLPHLVRVALAPMAANLIELGQRIKGLEIEIAREHRGNETSRRLETIPGFGVMTSTAMAATVADPTAFKSGREFAAWLGLTPRESSSGGKQRLGGITKMGDGYLRTLLVVGATAVIRFAREEGSAKTAWIRKLMEKKPAKVVAVALANKMARIAWPLMTRGEVYRVIPA | not soluble
13 | MRIAIDFDGTIVEHRYPRIGKEIPFAIATLKQLQTERHLLVLWTVREGKLLDEAVDFCRKRGLEFYAVNANHPEEEVRNDMTSPCRKVVADLYIDDLNVGKLPDWGAIYEMIHNRWSYERYLNEIHGFEKQKKISIWKRIFR | not soluble
14 | MSDNNQALKDAGLKVTLPRLKILEVLQQPECQHISAEELYKKLIDLGEEIGLATVYRVLNQFDDAGIVTRHHFEGGKSVFELSTQHHHDHLVCLDCGEVIEFSDDVIEQRQKEIAAKYNVQLTNHSLYLYGKCGSDGSCKDNPNAHKPKK | soluble
15 | MGSDKIHHHHHHMSLVVGSARIDENGHISGGKPGDQTGNEVSTQAYYVHSKGWYCLRPKSITVANAIAEAMLQGCRNNNIGYCQGHRSNVIEQLRRVGKLSKISVKTEADCSSLVRACCIQAGFDPGNFNTASEASALKATGQFMEAIAVTSKTELFNGDVLVTKTKGHTVVVVSGNPRHGNTYYPKYEGTSGSIITALAAVGEKDTSKAHRAKIAAANGITNYAYTAAQNTKMVNLLKKGKLIKA | not soluble
16 | MNSNSLSRFTSIVRTTSIRGFHDRSSVPRVVDDREKSSAKYNDAGYTFRYHQQGVDPLPRIPDCKVPVARPAYKVRDQWSDEAARFGQNDYIDLLGDGSVHPAQLQYHTPTWLRGFPGQHKANELIKLIHYRNLYDAKLKQNSPKRWHELRKRIKYLMMQHNYNKQDEIGRERNLGLWEEEPDYTYKDKSRRSFKDEIH | not soluble
